Measured values published in patent US20090192084A1.
Blank lines part the entries; values can stand above or below the binder they belong to.

Assays:
[1] = molecular target: p97-Myc; assay: p97-Myc co-IP, 293 cells, MudPIT MS
[2] = molecular target: T1, VCIP135 (human) (UniProt Q96JH7); assay: Flag co-IP, 293 cells, MudPIT MS
T1 sequence (looked up): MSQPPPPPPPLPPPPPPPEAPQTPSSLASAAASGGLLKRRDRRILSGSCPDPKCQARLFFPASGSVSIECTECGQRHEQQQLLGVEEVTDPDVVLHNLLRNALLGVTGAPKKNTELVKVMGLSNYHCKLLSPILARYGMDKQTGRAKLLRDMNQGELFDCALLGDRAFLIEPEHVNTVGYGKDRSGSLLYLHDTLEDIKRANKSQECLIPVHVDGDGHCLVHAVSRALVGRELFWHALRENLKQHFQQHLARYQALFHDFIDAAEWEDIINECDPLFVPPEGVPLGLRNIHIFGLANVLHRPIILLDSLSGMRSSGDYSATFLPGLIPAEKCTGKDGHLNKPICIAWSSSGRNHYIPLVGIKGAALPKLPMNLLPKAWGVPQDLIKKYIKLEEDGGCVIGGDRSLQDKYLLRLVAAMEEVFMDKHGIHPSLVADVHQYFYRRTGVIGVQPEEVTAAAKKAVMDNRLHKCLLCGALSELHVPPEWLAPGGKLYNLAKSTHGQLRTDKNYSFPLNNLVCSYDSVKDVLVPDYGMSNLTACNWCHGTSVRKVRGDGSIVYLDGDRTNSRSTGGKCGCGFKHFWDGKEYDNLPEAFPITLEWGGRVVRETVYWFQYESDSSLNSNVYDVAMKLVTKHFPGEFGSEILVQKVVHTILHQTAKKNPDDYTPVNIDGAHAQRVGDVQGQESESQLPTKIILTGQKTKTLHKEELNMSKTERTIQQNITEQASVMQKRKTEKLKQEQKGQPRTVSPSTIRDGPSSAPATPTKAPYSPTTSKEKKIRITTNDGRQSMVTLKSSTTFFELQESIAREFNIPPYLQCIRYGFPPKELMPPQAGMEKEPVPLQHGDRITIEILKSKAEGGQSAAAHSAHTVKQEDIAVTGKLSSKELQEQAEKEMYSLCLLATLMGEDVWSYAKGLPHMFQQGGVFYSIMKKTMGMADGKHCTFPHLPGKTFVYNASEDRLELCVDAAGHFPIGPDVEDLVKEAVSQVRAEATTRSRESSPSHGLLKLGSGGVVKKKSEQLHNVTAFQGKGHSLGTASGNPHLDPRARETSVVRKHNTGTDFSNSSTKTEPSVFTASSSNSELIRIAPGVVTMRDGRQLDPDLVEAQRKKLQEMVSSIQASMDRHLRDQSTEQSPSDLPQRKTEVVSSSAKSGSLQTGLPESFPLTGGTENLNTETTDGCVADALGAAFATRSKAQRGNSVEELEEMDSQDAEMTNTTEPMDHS

[3] = molecular target: T2, endogenous UFD1 (human) (UniProt Q92890); assay: Flag co-IP, 293 cells, MudPIT MS
T2 sequence (looked up): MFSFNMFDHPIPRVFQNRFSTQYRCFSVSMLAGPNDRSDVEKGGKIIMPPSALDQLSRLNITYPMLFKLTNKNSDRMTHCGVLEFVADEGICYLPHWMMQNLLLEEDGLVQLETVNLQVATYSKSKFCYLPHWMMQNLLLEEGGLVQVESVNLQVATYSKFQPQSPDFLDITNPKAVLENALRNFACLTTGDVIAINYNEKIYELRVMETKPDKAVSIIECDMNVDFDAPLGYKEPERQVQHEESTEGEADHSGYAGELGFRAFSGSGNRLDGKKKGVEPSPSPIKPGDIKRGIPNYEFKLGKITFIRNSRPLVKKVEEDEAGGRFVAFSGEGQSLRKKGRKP

[4] = molecular target: endogenous p97 (human) (UniProt P55072); assay: Flag co-IP, 293 cells, MudPIT MS
endogenous p97 (human), sequence (P55072 2-806 limits assumed): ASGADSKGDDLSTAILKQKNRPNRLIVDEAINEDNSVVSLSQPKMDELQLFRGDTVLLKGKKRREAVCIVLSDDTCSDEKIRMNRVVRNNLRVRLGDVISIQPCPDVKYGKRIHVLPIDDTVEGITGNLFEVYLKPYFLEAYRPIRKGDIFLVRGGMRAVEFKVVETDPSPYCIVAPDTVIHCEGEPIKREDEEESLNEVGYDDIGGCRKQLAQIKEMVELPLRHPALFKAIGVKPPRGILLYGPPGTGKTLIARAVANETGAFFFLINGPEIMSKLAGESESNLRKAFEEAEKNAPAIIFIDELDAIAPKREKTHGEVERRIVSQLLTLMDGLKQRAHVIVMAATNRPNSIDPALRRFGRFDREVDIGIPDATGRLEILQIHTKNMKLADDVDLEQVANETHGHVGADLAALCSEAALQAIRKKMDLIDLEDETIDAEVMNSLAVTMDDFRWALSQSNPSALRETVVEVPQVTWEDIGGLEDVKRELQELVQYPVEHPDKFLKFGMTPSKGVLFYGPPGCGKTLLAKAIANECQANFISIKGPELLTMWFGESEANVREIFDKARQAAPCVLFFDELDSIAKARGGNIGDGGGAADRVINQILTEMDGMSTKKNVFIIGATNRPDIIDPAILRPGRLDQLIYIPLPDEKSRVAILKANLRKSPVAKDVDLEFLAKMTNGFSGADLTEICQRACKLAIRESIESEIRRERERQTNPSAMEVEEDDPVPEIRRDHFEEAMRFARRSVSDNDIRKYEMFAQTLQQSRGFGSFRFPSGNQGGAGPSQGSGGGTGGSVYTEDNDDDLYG

[5] = molecular target: Cullin 2 (human) (UniProt Q13617); assay: Flag co-IP, MudPIT MS, DMSO
Cullin 2 (human), sequence (Q13617 whole entry): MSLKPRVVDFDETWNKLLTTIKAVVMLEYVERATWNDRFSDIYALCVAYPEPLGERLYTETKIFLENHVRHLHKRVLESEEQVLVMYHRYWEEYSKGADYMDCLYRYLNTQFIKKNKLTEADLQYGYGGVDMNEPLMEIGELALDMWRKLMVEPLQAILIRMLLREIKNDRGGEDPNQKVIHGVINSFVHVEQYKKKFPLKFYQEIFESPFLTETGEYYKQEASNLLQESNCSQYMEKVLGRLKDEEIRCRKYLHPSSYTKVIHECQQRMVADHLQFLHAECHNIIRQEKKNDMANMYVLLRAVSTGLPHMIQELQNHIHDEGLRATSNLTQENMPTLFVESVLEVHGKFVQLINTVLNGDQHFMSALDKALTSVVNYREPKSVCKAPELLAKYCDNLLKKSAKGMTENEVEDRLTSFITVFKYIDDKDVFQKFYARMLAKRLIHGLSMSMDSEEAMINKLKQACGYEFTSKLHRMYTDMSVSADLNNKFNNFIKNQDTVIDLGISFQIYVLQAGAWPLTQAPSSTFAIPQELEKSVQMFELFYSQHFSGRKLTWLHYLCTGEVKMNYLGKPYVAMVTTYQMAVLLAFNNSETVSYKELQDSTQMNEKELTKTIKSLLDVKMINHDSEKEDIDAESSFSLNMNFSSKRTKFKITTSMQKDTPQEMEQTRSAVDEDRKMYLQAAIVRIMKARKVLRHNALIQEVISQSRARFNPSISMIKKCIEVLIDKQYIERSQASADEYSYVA

[6] = molecular target: Cullin 2 (human) (UniProt Q13617); assay: Flag co-IP, MudPIT MS, MG132

p97-Myc, sequence (Q01853 2-806): as the sequence (P55072 2-806 limits assumed) above

B3: Flag-NPL4 (protein, UniProt Q8TAT6 2-608, looked up, species assumed)
Nuclear protein localization protein 4 homolog: AESIIIRVQSPDGVKRITATKRETAATFLKKVAKEFGFQNNGFSVYINRNKTGEITASSNKSLNLLKIKHGDLLFLFPSSLAGPSSEMETSVPPGFKVFGAPNVVEDEIDQYLSKQDGKIYRSRDPQLCRHGPLGKCVHCVPLEPFDEDYLNHLEPPVKHMSFHAYIRKLTGGADKGKFVALENISCKIKSGCEGHLPWPNGICTKCQPSAITLNRQKYRHVDNIMFENHTVADRFLDFWRKTGNQHFGYLYGRYTEHKDIPLGIRAEVAAIYEPPQIGTQNSLELLEDPKAEVVDEIAAKLGLRKVGWIFTDLVSEDTRKGTVRYSRNKDTYFLSSEECITAGDFQNKHPNMCRLSPDGHFGSKFVTAVATGGPDNQVHFEGYQVSNQCMALVRDECLLPCKDAPELGYAKESSSEQYVPDVFYKDVDKFGNEITQLARPLPVEYLIIDITTTFPKDPVYTFSISQNPFPIENRDVLGETQDFHSLATYLSQNTSSVFLDTISDFHLLLFLVTNEVMPLQDSISLLLEAVRTRNEELAQTWKRSEQWATIEQLCSTVGGQLPGLHEYGAVGGSTHTATAAMWACQHCTFMNQPGTGHCEMCSLPRT
modifications: N-terminal Flag tag
- sequence count [2]: 2
- sequence coverage [2]: 2.5%
- spectrum count [2]: 2
- sequence count [3]: 14
- sequence coverage [3]: 37.9%
- spectrum count [3]: 22
- sequence count [4]: 79
- sequence coverage [4]: 70.4%
- spectrum count [4]: 414

B4: Flag-SAKS1 (protein, UniProt Q04323 1-297, looked up, not shown: small tags and cut ends)
chain: MAELTALESLIEMGFPRGRAEKALALTGNQGIEAAMDWLMEHEDDPDVDEPLETPLGHILGREPTSSEQGGLEGSGSAAGEGKPALSEEERQEQTKRMLELVAQKQREREEREEREALERERQRRRQGQELSAARQRLQEDEMRRAAEERRREKAEELAARQRVREKIERDKAERAKKYGGSVGSQPPPVAPEPGPVPSSPSQEPPTKREYDQCRIQVRLPDGTSLTQTFRAREQLAAVRLYVELHRGEELGGGQDPVQLLSGFPRRAFSEADMERPLQELGLVPSAVLIVAKKCPS
- abundance factor (AF) [5]: 3.7
- sequence count [5]: 3
- spectrum count [5]: 4
- abundance factor (AF) [6]: 5.5
- sequence count [6]: 4
- spectrum count [6]: 11

B6: Flag-p47 (protein, UniProt O35987 1-370, looked up, not shown: small tags and cut ends)
chain: MAEERQDALREFVAVTGAEEDRARFFLESAGWDLQIALASFYEDGGDEDIVTISQATPSSVSRGTAPSDNRVTSFRDLIHDQDEEEEEEEGQRFYAGGSERSGQQIVGPPRKKSPNELVDDLFKGAKEHGAVAVERVTKSPGETSKPRPFAGGGYRLGAAPEEESAYVAGERRRHSGQDVHVVLKLWKTGFSLDNGDLRSYQDPSNAQFLESIRRGEVPAELRRLAHGGQVNLDMEDHRDEDFVKPKGAFKAFTGEGQKLGSTAPQVLNTSSPAQQAENEAKASSSILINEAEPTTNIQIRLADGGRLVQKFNHSHRISDIRLFIVDARPAMAATSFVLMTTFPNKELADENQTLKEANLLNAVIVQRLT
- sequence count [2]: 14
- sequence coverage [2]: 17.6%
- spectrum count [2]: 15

B9: Flag-UBXD8 (protein, UniProt Q96CS3 1-445, looked up, not shown: small tags and cut ends)
chain: MAAPEERDLTQEQTEKLLQFQDLTGIESMDQCRHTLEQHNWNIEAAVQDRLNEQEGVPSVFNPPPSRPLQVNTADHRIYSYVVSRPQPRGLLGWGYYLIMLPFRFTYYTILDIFRFALRFIRPDPRSRVTDPVGDIVSFMHSFEEKYGRAHPVFYQGTYSQALNDAKRELRFLLVYLHGDDHQDSDEFCRNTLCAPEVISLINTRMLFWACSTNKPEGYRVSQALRENTYPFLAMIMLKDRRMTVVGRLEGLIQPDDLINQLTFIMDANQTYLVSERLEREERNQTQVLRQQQDEAYLASLRADQEKERKKREERERKRRKEEEVQQQKLAEERRRQNLQEEKERKLECLPPEPSPDDPESVKIIFKLPNDSRVERRFHFSQSLTVIHDFLFSLKESPEKFQIEANFPRRVLPCIPSEEWPNPPTLQEAGLSHTEVLFVQDLTDE
- abundance factor (AF) [5]: 2.4
- sequence count [5]: 4
- spectrum count [5]: 12
- abundance factor (AF) [6]: 10.3
- sequence count [6]: 8
- spectrum count [6]: 38

Next, values leading:

- sequence count [1]: 19
- sequence coverage [1]: 52.2%
- spectrum count [1]: 153
B1: endogenous p47 (protein, human, UniProt Q9UNZ2 1-370, looked up)
chain: MAAERQEALREFVAVTGAEEDRARFFLESAGWDLQIALASFYEDGGDEDIVTISQATPSSVSRGTAPSDNRVTSFRDLIHDQDEDEEEEEGQRFYAGGSERSGQQIVGPPRKKSPNELVDDLFKGAKEHGAVAVERVTKSPGETSKPRPFAGGGYRLGAAPEEESAYVAGEKRQHSSQDVHVVLKLWKSGFSLDNGELRSYQDPSNAQFLESIRRGEVPAELRRLAHGGQVNLDMEDHRDEDFVKPKGAFKAFTGEGQKLGSTAPQVLSTSSPAQQAENEAKASSSILIDESEPTTNIQIRLADGGRLVQKFNHSHRISDIRLFIVDARPAMAATSFILMTTFPNKELADESQTLKEANLLNAVIVQRLT

- sequence count [1]: 4
- sequence coverage [1]: 19.3%
- spectrum count [1]: 5
B2: endogenous UBXD4 (protein, human, UniProt P68543 1-259, looked up)
chain: MKDVDNLKSIKEEWVCETGSDNQPLGNNQQSNCEYFVDSLFEEAQKVSSKCVSPAEQKKQVDVNIKLWKNGFTVNDDFRSYSDGASQQFLNSIKKGELPSELQGIFDKEEVDVKVEDKKNEICLSTKPVFQPFSGQGHRLGSATPKIVSKAKNIEVENKNNLSAVPLNNLEPITNIQIWLANGKRIVQKFNITHRVSHIKDFIEKYQGSQRSPPFSLATALPVLRLLDETLTLEEADLQNAVIIQRLQKTASFRELSEH

- sequence count [1]: 6
- sequence coverage [1]: 32.3%
- spectrum count [1]: 7
B5: endogenous p37 (protein, human, UniProt Q14CS0 2-331, looked up)
chain: AEGGGPEPGEQERRSSGPRPPSARDLQLALAELYEDEVKCKSSKSNRPKATVFKSPRTPPQRFYSSEHEYSGLNIVRPSTGKIVNELFKEAREHGAVPLNEATRASGDDKSKSFTGGGYRLGSSFCKRSEYIYGENQLQDVQILLKLWSNGFSLDDGELRPYNEPTNAQFLESVKRGEIPLELQRLVHGGQVNLDMEDHQDQEYIKPRLRFKAFSGEGQKLGSLTPEIVSTPSSPEEEDKSILNAVVLIDDSVPTTKIQIRLADGSRLIQRFNSTHRILDVRNFIVQSRPEFAALDFILVTSFPNKELTDESLTLLEADILNTVLLQQLK

- sequence count [1]: 2
- sequence coverage [1]: 19.5%
- spectrum count [1]: 2
B7: endogenous SAKS1 (protein, human, UniProt Q04323 2-297, looked up)
chain: AELTALESLIEMGFPRGRAEKALALTGNQGIEAAMDWLMEHEDDPDVDEPLETPLGHILGREPTSSEQGGLEGSGSAAGEGKPALSEEERQEQTKRMLELVAQKQREREEREEREALERERQRRRQGQELSAARQRLQEDEMRRAAEERRREKAEELAARQRVREKIERDKAERAKKYGGSVGSQPPPVAPEPGPVPSSPSQEPPTKREYDQCRIQVRLPDGTSLTQTFRAREQLAAVRLYVELHRGEELGGGQDPVQLLSGFPRRAFSEADMERPLQELGLVPSAVLIVAKKCPS

- sequence count [1]: 11
- sequence coverage [1]: 33.7%
- spectrum count [1]: 12
B8: endogenous UBXD8 (protein, human, UniProt Q96CS3 2-445, looked up)
chain: AAPEERDLTQEQTEKLLQFQDLTGIESMDQCRHTLEQHNWNIEAAVQDRLNEQEGVPSVFNPPPSRPLQVNTADHRIYSYVVSRPQPRGLLGWGYYLIMLPFRFTYYTILDIFRFALRFIRPDPRSRVTDPVGDIVSFMHSFEEKYGRAHPVFYQGTYSQALNDAKRELRFLLVYLHGDDHQDSDEFCRNTLCAPEVISLINTRMLFWACSTNKPEGYRVSQALRENTYPFLAMIMLKDRRMTVVGRLEGLIQPDDLINQLTFIMDANQTYLVSERLEREERNQTQVLRQQQDEAYLASLRADQEKERKKREERERKRRKEEEVQQQKLAEERRRQNLQEEKERKLECLPPEPSPDDPESVKIIFKLPNDSRVERRFHFSQSLTVIHDFLFSLKESPEKFQIEANFPRRVLPCIPSEEWPNPPTLQEAGLSHTEVLFVQDLTDE
